Article PMC2966024

Target: PspB-T25 fusion (Y. enterocolitica PspB with Cya-T25 fused to its C-terminus) (Y. enterocolitica)
Test: two-hybrid

For “PspA-T18 fusion (Y. enterocolitica PspA with Cya-T18 fused to its C-terminus) (from UniProt Q9F4H4 1-221) (natural protein)”, the beta-galactosidase activity was 1470 Miller units.
